Test [1] deals with T1, fusion protein of a human IgG1 Fc domain and human LAP-TGFβ1 (human, UniProt P01137 30-390).
T1 construct: printed both as Fc-huB1 and LAP-TGFβ-Fc; also called Fc-huB1; Fc-human LAP
As to the kind of experiment: BLI, 2:1 heterogeneous ligand model, component 1. Here is the method: (§1) The 20E6_H0.2aL1_IgG1 antibody was biotinylated using EZ-Link SulfoNHS-LC-Biotin (ThermoFisher). A streptavidin-functionalized tip was equilibrated in binding buffer (10 mM sodium phosphate, 150 mM sodium chloride, 1% (w/v) bovine serum albumin, 0.05% (w/v) sodium azide, pH 7.4) and dipped in a 10 μg/mL solution of biotinylated anti-LAP in binding buffer for 30 seconds to load the tip with antibody. The antibody-loaded tip was then washed in binding buffer and placed in a solution containing 0-24 nM of a fusion protein having a human IgG1 Fc domain fused to either human LAP-TGFβ1, human LAP-TGFβ2 or human LAP-TGFβ3. The antigen was allowed to bind to antibody for 5 minutes (association phase), and then the tip was moved to binding buffer (dissociation phase). The association and dissociation phases were fit to a 2:1 heterogenous ligand binding model to determine the binding rate constants. As shown in FIG. 21A and Table 17, 20E6_H0.2aL1_IgG1 bound with sub-nanomolar affinity to human LAP-TGFβ1, but not to human LAP-TGFβ2 (FIG. 21B) or LAP-TGFβ3 (FIG. 21C).
Background: BLI is a label-free optical method that tracks binding on a fibre tip over time.

The target in test [2] is T2, fusion protein of a human IgG1 Fc domain and human LAP-TGFβ3 (human, UniProt P10600 24-412).
T2 construct: also called Fc-huB3; human LAP-TGFβ3-Fc
T2 sequence: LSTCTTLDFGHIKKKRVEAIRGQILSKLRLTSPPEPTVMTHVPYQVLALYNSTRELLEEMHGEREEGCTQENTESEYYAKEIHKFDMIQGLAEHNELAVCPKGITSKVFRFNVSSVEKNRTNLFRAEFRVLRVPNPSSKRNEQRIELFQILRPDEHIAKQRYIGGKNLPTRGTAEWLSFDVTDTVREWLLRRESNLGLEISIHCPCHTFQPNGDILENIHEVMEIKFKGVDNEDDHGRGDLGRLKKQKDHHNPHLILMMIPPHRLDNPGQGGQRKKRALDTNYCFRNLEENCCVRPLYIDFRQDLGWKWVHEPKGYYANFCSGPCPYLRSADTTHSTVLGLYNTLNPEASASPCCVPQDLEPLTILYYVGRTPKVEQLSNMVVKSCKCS
Put plainly: bio-layer interferometry, biotinylated antibody on streptavidin tip, Fc-huB3 in solution. Here is the method:
as §1

The target in test [3] is T1, fusion protein of a human IgG1 Fc …. As to the kind of experiment: BLI, antibody on tip, 1:1 model. Here is the method: Binding to human TGFβ1 of a subset of candidates was also tested by bio-layer interferometry (Octet). A streptavidin coated tip was equilibrated for 60 seconds in binding buffer (10 mM sodium phosphate, 150 mM sodium chloride, 1% bovine serum albumin, 0.05% sodium azide). The tip was then dipped in 10 μg/mL biotinylated antibody in binding buffer. After 15 seconds, the tip was washed in binding buffer for 60 seconds, and then dipped in 0-24 nM Fc-human LAP. Analyte association was measured for 5 minutes. The tip was transferred to binding buffer alone, and analyte dissociation was measured for 5 minutes. The association and dissociation data were fit to a 1:1 binding model.

Test [4] concerns the target T3, mature human TGFβ1 (free TGFβ1, without LAP) (human, UniProt P01137 279-390).
T3 construct: also called mature TGFβ; free human TGFβ1
As to the kind of experiment: TGFβ1 ELISA after pre-incubation of 1000 pg mature TGFβ1 with antibody; loss of signal reflects binding. Here is the method:
To determine whether anti-LAP antibodies 28G11_hIgG1, 22F9_hIgG1, 20E6_hIgG1, 17G8_hIgG1, and 24E3_hIgG1, bind to free human TGFβ1 (i.e., mature TGFβ1 that lacks LAP), the ability of the antibodies to inhibit an anti-TGFβ ELISA was evaluated. Briefly, mature TGFβ1 (1000 pg) was incubated with the indicated anti-LAP antibodies at 10 μg/mL, an isotype control antibody as a negative control or the commercially available anti-TGFβ antibody 1D11 as a positive control for 10 minutes on ice. For example, the 1D11 antibody is commercially available from any number of sellers, for example Bio x Cell Inc. (West Lebanon, N.H.). Supernatants were assayed in a TGFβ1 ELISA (R&D Systems) according to the manufacturer instructions to measure free TGFβ1. […] Note that Figure and FIG. are used interchangeably in this application.

T1 sequence (P01137 30-390 limits assumed): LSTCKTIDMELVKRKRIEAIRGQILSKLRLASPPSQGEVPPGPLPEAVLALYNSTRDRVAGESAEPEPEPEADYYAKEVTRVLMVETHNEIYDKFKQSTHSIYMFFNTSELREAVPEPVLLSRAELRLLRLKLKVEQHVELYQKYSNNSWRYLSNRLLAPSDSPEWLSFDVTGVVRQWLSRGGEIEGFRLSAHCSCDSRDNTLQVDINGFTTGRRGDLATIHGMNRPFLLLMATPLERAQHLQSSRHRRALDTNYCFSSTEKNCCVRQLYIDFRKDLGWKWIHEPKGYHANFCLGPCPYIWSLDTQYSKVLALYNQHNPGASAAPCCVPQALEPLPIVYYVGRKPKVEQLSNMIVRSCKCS
T3 sequence (P01137 279-390 limits assumed): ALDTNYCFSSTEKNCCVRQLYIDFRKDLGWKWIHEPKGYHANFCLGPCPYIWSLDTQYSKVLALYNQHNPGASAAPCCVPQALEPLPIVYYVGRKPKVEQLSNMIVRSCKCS

B1: 20E6_H0.2aL1_hIgG1 (antibody)
heavy: not shown
light: DIQMTQSPSSLSASVGDRVTITCRASQDITNYLNWYQQKPGKAVKLLIYYTSRLHSGVPSRFSGSGSGTDYTLTISSLQPEDFATYFCQQGDTLPWTFGQGTKLEIKRTVAAPSVFIFPPSDEQLKSGTASVVCLLNNFYPREAKVQWKVDNALQSGNSQESVTEQDSKDSTYSLSSTLTLSKADYEKHKVYACEVTHQGLSSPVTKSFNRGEC
notes: also called 20E6_H0.2aL1_IgG1; humanized 20E6
Consider B1, for which, in test [1], the equilibrium dissociation constant (Kd) (usually the free concentration of one partner at which half of the binding sites on the other are occupied at equilibrium, for simple one-to-one binding) stood at 11.4 nM; the koff (commonly the rate constant with which the complex falls apart) was determined as 0.0369 s⁻¹; the kon – broadly, a measure of how fast the partners come together – came out at 3.24e+06 M⁻¹ s⁻¹. In addition, the binding result in test [2] is listed as “no binding (tested: 24 nM)”.

B2: 22F9_hIgG1 (antibody, V domains shown)
VH: QVQLQQPGAELVKPGASVKLSCKASGYTFTSYWMHWVKQRPGQGLEWIGMIHPNSGSTNYNEKFKSKATLTVDKSSSTAYMQLSSLTSEDSAVYYCAYYDYDGFFDVWGTGTTVTVSS
VL: DIVLTQSPASLDVSLGQRATISCRASKSVSTSGYSYMHWYQQKSGQPPKLLIYLASNLESGVPARFSGSGSGTHFTLNIHPVEEEDAATYYCQHSRELPYTFGGGTKLEIK
In test [3], B2 displayed a Kd of 3.74 nM, a koff of 0.00168 s⁻¹ and a kon of 450000 M⁻¹ s⁻¹. Also, in test [4], the binding result is on record as “no binding (tested: 10 µg/mL)”.

The values above are taken from patent US20220017612A1 (TILOS THERAPEUTICS, published 2022).
